# The nanobody polyreactivity screen of Harvey et al. (2022)
# Assay: yeast display, Sf9 membrane polyspecificity reagent, FACS + sequencing; frameworks hold sequencing errors
# Summary of the method: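 Galactose-induced (36–48 hours) yeast carrying a synthetic nanobody display library were exposed to 10% biotinylated, detergent-solubilized Sf9 membrane reagent at 4 °C for 1 hour. FACS followed streptavidin microbead enrichment, using low and high (top ~1%) gates for expression (anti-HA) and reagent binding (streptavidin). Colony PCR, MiSeq 2 × 250 sequencing and CDR-length filtering followed. Labels for polyreactivity reflect the gate of origin.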
row,Sequence,polyreactivity (PSR sort gate)
1,QVQLVESGGGLVQAGGSLRLSCAASGSIFDIYGMGWYRQAPGKERELVASISGGAGSTNYADSVKGRFTISRDHAKNTVYLQMNSLKPEDTAVYYCAAEVYVPDYFQHKFDVEYEYWGQGTQVTVSS,low polyreactivity
2,QVQLVESGGGLVQAGGSLRLSCAASGSIFDNAMGWYRQAPGKERELVAAISLSGSRTYYADSVKGRFTISRDNAKNTVYLQMNSLKPEDTAVYYCNTELVYYSTYDYWGQGTQVTVSS,low polyreactivity
3,QVQLVESGGGLVQAGGSLRLSCAASGSIFDPNAMGWYRQAPGKEREFVAAISYGGGSTTYADSVKGRFTISRDNAKNTVYLQMNSLKPEDTAVYYCAAGFYTYPTWFHPGYLFSAGDYWGQGTQVTVSS,low polyreactivity
4,QVQLVESGGGLVQAGGSLRLSCAASGSIFDPNAMGWYRQAPGKERELVAAITSGGGSTYYADSVKGRFTISRDNAKNTVYLQMNSLNPEDTAVYYCNKVFVLPYKFVAWFDYWGQGTQVTVSS,low polyreactivity
5,QVQLVESGGGLVQAGGSLRLSCAASGSIFDPYAMGWYRQAPGKERELVAAINGGSGSTFYADSVKGRFTISRDNAKNTVYLQMNSLKPEDTAVYYCAAKIWRYSPSYYPEPRGDYWGQGTQVTVSS,low polyreactivity
6,QVQLVESGGGLVQAGGSLRLSCAASGSIFDPYAMGWYRQAPGKERELVAAITYSVGGTTYYADSVKGRFTISRDNAKNTVYLQMNSLKPEDTAVYYCAAEWWGNPFDYWGQGTQVTVSS,high polyreactivity
7,QVQLVESGGGLVQAGGSLRLSCAASGSIFDPYAMGWYRQAPRKERELVAAIRWSGTSTYYADSVMGRFTISRDNAKNTVYLQMNSLKPEDTAVYYCAARGSKGFSSPFGYWGQGTQLTVSS,high polyreactivity
8,QVQLVESGGGLVQAGGSLRLSCAASGSIFDQNAMVWYRQAPGKERELVAAITRGGSTKYADSVKGRFTISRDNAKNTVYLQMNSLKPEDTAVYYCARTARRRYQPYEYWGQGTQVTVSS,low polyreactivity
9,QVQLVESGGGLVQAGGSLRLSCAASGSIFDRYAMGWYRQAPGKERELVAAISKSGGRTYYADSVKGRLTISRDNAKNTVYLQMNSLKPEDTAVYYCAADPLLGYLSHYYWGQGTQVTVSS,high polyreactivity
10,QVQLVESGGGLVQAGGSLRLSCAASGSIFDRYAMGWYRQAPGKERELVAAISTGGSTNYADSVKGRFTISRDNAKNTVYLQMNSLKPEDTAVYYCAARYLYRMYYWGQGTQVTVSS,low polyreactivity
11,QVQLVESGGGLVQAGGSLRLSCAASGSIFDRYAMGWYRQAPGKERELVASIRQRGGSTYYADSVKGRFTISRDNAKNTVYLQMNSLKPEDTAVYYCAARKYPFRQSTYDYWGQGTQVTVSS,low polyreactivity
12,QVQLVESGGGLVQAGGSLRLSCAASGSIFDRYGMGLYRQAPGKETELVADITSDGSTNYADSLKGRFTISRDNAKNSVYLQMNSLKREDTAVYYCAVSYTAYYVGYDYWGQGTQVTVSS,low polyreactivity
13,QVQLVESGGGLVQAGGSLRLSCAASGSIFDRYGMGWYRQAPGKERELVADITSDGSTNYADSVKGRFTISRDNAKNTVYLQMNSLKPEDTAVYYCAVSYTAYSVGYDYWGQGTQVTVSS,low polyreactivity
14,QVQLVESGGGLVQAGGSLRLSCAASGSIFDRYVMGWYRQAPGKERELVAAITTSGDGTYYADSVKGRFTISRDNAKNTVYLQMNSLKPEDTAVYYCAAVRRSWKYSTSDYWGQGTQVTVSS,low polyreactivity
15,QVQLVESGGGLVQAGGSLRLSCAASGSIFDSYAMGWYRPEPGKERELVAAISSGGSTNYADSVKGRFTISRDNEKNTVYLQMNSLKPEDTAVYYCAADGSLDAYNYWGQGTQVTVSS,low polyreactivity
16,QVQLVESGGGLVQAGGSLRLSCAASGSIFDSYAMGWYRQAPGKERELVAAISWSGGSTYYADSVKGRFTISRDTAKNTVYLQMNSLKPDDTAVYYCNTDWADYYYYTDYDYWGQGTQLTVSS,high polyreactivity

row,Sequence,polyreactivity (PSR sort gate)
1,QVQLVESGGGLVQAGGSLRLSCAASGSIFDTNAMGWYIQAPGKEREFVGTITNSGGRTYYADSVKGRFTISRDNAKNTVYLQMNSLKPEDTAVYYCNADVHRFSGNGYRYYYWGQGTQVTVSS,low polyreactivity
2,QVQLVESGGGLVQAGGSLRLSCAASGSIFDTYAMGWYRQAPGKERELVAAITWSGSSTYYADSVKGRFTISRDNAKNTVYLQMNSLKPEDTAVYYCAKDYYVEVTTEYDYWGQGTQVTVSS,high polyreactivity
3,QVQLVESGGGLVQAGGSLRLSCAASGSIFDVNAMGWYRQAPGKERELVAAISQRGTRTYYADSVKGRFTISRDNAKNTVYLQMNSLKPEDTAVYYCNRGGWRQYDSWGQGTQVTVSS,high polyreactivity
4,QVQLVESGGGLVQAGGSLRLSCAASGSIFDVNAMGWYRQAPGKERELVAAISQRGTRTYYADSVKGRFTISRENAKNTVYLQMNSLKPEDTAVYYCNRGGWRQYDSWGQGTQVTVSS,high polyreactivity
5,QVQLVESGGGLVQAGGSLRLSCAASGSIFDVNTMGWYRQAPGKERELVAAITNGDRTNYADSVKGRFTISRDNAKNTVYLQMNSLKPEDTAVYYCAADSVLDRPVLYLWPWYLGDYWGQGTQVTVSS,low polyreactivity
6,QVQLVESGGGLVQAGGSLRLSCAASGSIFDVYDMGWYRQAPGKERELVASISDSGSSTYYADSVKGRFTISRDNAKNTVYLQMNSLKPEDTAVYYCAAGYYVDRSIYNYWGQGTQVTVSS,low polyreactivity
7,QVQLVESGGGLVQAGGSLRLSCAASGSIFDWNAMGWYRQAPGKERELVAAIRRGGSTYYADSVKGRFTISRDNAKNTVYLQMNSLKPEDTAVYYCATRFYSRYYILDYDYWGQGTQLTVSS,high polyreactivity
8,QVQLVESGGGLVQAGGSLRLSCAASGSIFDWNAMGWYRQAPGKERELVAAISGTGGTKYADSVKGRFTISRDNAKNTVYLQMISLKPEDTAVYYCAVGLVPLRDGWHFYYEFDSWGQGTQVTVSS,low polyreactivity
9,QVQLVESGGGLVQAGGSLRLSCAASGSIFDWNSMGWYRQAPGKERELVATISWDGGSTYYADSVKGRFTISLDNAKNTVYLQMNSLKPEDTAVYYCATVFTGKPAYYARTKYDYWGQGTQVTVSS,low polyreactivity
10,QVQLVESGGGLVQAGGSLRLSCAASGSIFDYNAMGWYRQAPGKERELVAAITYSGGTTYADSVKGRFTISRDNAKNTVYLQMNSLKPEDTAVYYCNADVYRWSGSYTGWDSWHDYWGQGTQVTVSS,low polyreactivity
11,QVQLVESGGGLVQAGGSLRLSCAASGSIFDYNAMGWYRTAPGKERELVAAITGSGGSTYYADSVKGRFTISRDNAKNTVYLQMNSLTQEDTAVYYCAAPVDYRRYEYEYWGQGTQVTLSS,low polyreactivity
12,QVQLVESGGGLVQAGGSLRLSCAASGSIFDYNGMGWYRQAPGKERELVAAISSGGSTNYADSVKGRFTISRDNAKNTVYLQMNSLKPEDTAVYYCAAVGRAKYYYWGQGTQVTVSS,low polyreactivity
13,QVQLVESGGGLVQAGGSLRLSCAASGSIFDYYAMGWYRQAPGKERELVAAISWRGGRTYYADSVKGRFTISRDNAKNTVYLQMNSLKPEDTAVYYCAAYFQRSGFSFRLRGQGTQVTVSS,high polyreactivity
14,QVQLVESGGGLVQAGGSLRLSCAASGSIFDYYAMGWYRQAPGKERELVAAISWSGGSTYYADSVKGRFTISRDNAKNTVYLQMNSLKPEDTAVYYCAAEYYGGELDYWGQGTQVTVSS,low polyreactivity
15,QVQLVESGGGLVQAGGSLRLSCAASGSIFDYYAMGWYRQAPGQERELVAAISVRGGSTYYADSVKGRFTISRDNANNTVYLHKNSLKPEDTAVYYCAADYAYNKYLSVEYWGQGTQVTVSS,low polyreactivity
